± gives the standard deviation of the averaged measurements.

The data set concerns ATP. In words: switch fluorescence ratio, 500 uM ATP over buffer (Cy3 cluster intensity, sum of 5 cycles each) (fold (ratio)); higher = stronger signal-on switching upon ATP binding; sequences stand for … in TCGTCGGCAGCGTCAGATGTGTATAAGAGACAGTTTTTTTTTTTTTTTTTTTTTTTTT…TC. As to conditions: aptamer strand: ATP DNA aptamer (quencher-CACCTGGGGGAGTATTGCGGAGGAAGG + anchor), 100 nM annealed; ATP concentration: 500 uM. The method in brief: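 Imaging in selection buffer was followed by imaging after 15 min with 500 uM ATP at 22 °C, for Cy3-labelled switching-strand clusters annealed to 100 nM quencher-labelled ATP aptamer on a modified Illumina MiSeq flow-cell. Five of these buffer/ATP cycles ran, separated by NaOH stripping and re-annealing. The fluorescence ratio per cluster is summed target-cycle over summed buffer-cycle Cy3 intensity, averaged per switch-domain sequence; clusters outside 100-1000 RFU were removed.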
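Further: ATP exposure 15 min at 22 °C before imaging.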

For the sequence CTAGTATATT, the switch fluorescence ratio is 0.993 ± 0.025.

For the sequence CTAGTCATGC, the switch fluorescence ratio came out at 1.06 ± 0.0097.

CTAGTGCCAG: the switch fluorescence ratio was determined as 1.016 ± 0.0069.

As to CTAGTGCTTG, the switch fluorescence ratio amounted to 1.008 ± 0.0032.

On to CTAGTGGGGA, for which the switch fluorescence ratio amounted to 1.01 ± 0.017.

For the sequence CTAGTGTCTC, the switch fluorescence ratio was found to be 0.989 ± 0.025.

Regarding CTAGTTCGTC, the switch fluorescence ratio was 0.972 ± 0.12.

As for CTATAAAGTT, the switch fluorescence ratio worked out at 0.979 ± 0.024.

As for CTATAATAGG, the switch fluorescence ratio stood at 0.961 ± 0.01.

CTATAATGAG: the switch fluorescence ratio stood at 0.9963 ± 0.0014.

With CTATACGGAG, the switch fluorescence ratio stood at 1.09 ± 0.13.

In the case of CTATACGGTT, the switch fluorescence ratio stood at 0.983 ± 0.03.

In the case of CTATAGAAAT, the switch fluorescence ratio was 0.9991 ± 0.0091.

Regarding CTATATGTTG, the switch fluorescence ratio was found to be 0.985 ± 0.053.

For the sequence CTATATTAGG, the switch fluorescence ratio is 0.997 ± 0.032.

CTATCGTGGT: the switch fluorescence ratio was determined as 0.9554 ± 0.0033.

On to CTATGATTTG, for which the switch fluorescence ratio worked out at 0.9976 ± 0.0042.

Regarding CTATGCGTAC, the switch fluorescence ratio came out at 3.51 ± 0.89.

CTATGGGATT: the switch fluorescence ratio was 0.983 ± 0.022.

Turning to CTATGTATTG, the switch fluorescence ratio worked out at 0.9695 ± 0.0096.

Turning to CTATTAATGT, the switch fluorescence ratio worked out at 0.989 ± 0.028.

For CTATTAGGTA, the switch fluorescence ratio was determined as 0.977 ± 0.0046.

With CTATTCCACC, the switch fluorescence ratio was found to be 1.02 ± 0.023.

CTATTGGGTT: the switch fluorescence ratio came to 1.02 ± 0.016.

Take CTATTTCGGG: the switch fluorescence ratio amounted to 0.979 ± 0.052.

On to CTCAAAAGTT, for which the switch fluorescence ratio came out at 1.01 ± 0.026.

On to CTCACAGGGG, for which the switch fluorescence ratio was 3.62 ± 0.1.

Turning to CTCACATGGG, the switch fluorescence ratio came to 1.07 ± 0.028.

For CTCAGAAACA, the switch fluorescence ratio was 1.02 ± 0.013.

For the sequence CTCAGCCATT, the switch fluorescence ratio was found to be 1.36 ± 0.039.

As for CTCAGGACAG, the switch fluorescence ratio is 0.995 ± 0.044.

Take CTCAGGCG: the switch fluorescence ratio was determined as 1.17 ± 0.23.

Turning to CTCAGGGCGT, the switch fluorescence ratio is 0.97546 ± 0.00044.

For the sequence CTCATAAGTT, the switch fluorescence ratio turned out to be 1.01 ± 0.028.

Turning to CTCATACGGG, the switch fluorescence ratio is 1.05 ± 0.036.

CTCATATGGA: the switch fluorescence ratio was found to be 1.01 ± 0.048.

On to CTCATGTAAG, for which the switch fluorescence ratio amounted to 1.009 ± 0.0014.

As to CTCATGTTGG, the switch fluorescence ratio was found to be 0.983 ± 0.015.

CTCCACGGGA: the switch fluorescence ratio amounted to 1.144 ± 0.011.

Take CTCCAGTCAG: the switch fluorescence ratio came to 1.51 ± 0.055.

Consider CTCCATGGTT, for which the switch fluorescence ratio was determined as 1.06 ± 0.024.

As to CTCCCTGGGT, the switch fluorescence ratio is 1.401 ± 0.013.

For the sequence CTCCGTTAGT, the switch fluorescence ratio is 3.1 ± 0.065.

On to CTCCTTGTCG, for which the switch fluorescence ratio came out at 1.014 ± 0.0077.

Take CTCGAATGTA: the switch fluorescence ratio turned out to be 0.994 ± 0.014.

With CTCGAGGGTA, the switch fluorescence ratio is 1 ± 0.022.

For the sequence CTCGATAGGT, the switch fluorescence ratio is 0.984 ± 0.028.

As to CTCGCGAATT, the switch fluorescence ratio stood at 1.55 ± 0.49.

For CTCGCTGCGG, the switch fluorescence ratio worked out at 1.029 ± 0.0073.

For the sequence CTCGGACCTT, the switch fluorescence ratio worked out at 1.19 ± 0.017.

Turning to CTCGGCGTCG, the switch fluorescence ratio came out at 1.03 ± 0.019.

With CTCGGGACGG, the switch fluorescence ratio worked out at 1.005 ± 0.01.

Regarding CTCGGGCAGG, the switch fluorescence ratio turned out to be 1.01 ± 0.032.

With CTCGGGGCGG, the switch fluorescence ratio is 1.02 ± 0.037.

On to CTCGGGGGAG, for which the switch fluorescence ratio was 0.991 ± 0.026.

Consider CTCGGGGGGA, for which the switch fluorescence ratio amounted to 1.01 ± 0.018.

Consider CTCGGGGGTT, for which the switch fluorescence ratio came to 1.06 ± 0.08.

Take CTCGGTGAGG: the switch fluorescence ratio came out at 0.991 ± 0.029.

With CTCGGTGTGG, the switch fluorescence ratio came to 1 ± 0.033.

In the case of CTCGGTTTAG, the switch fluorescence ratio stood at 1 ± 0.038.

Take CTCGGTTTTT: the switch fluorescence ratio came out at 0.989 ± 0.035.

Take CTCGTAATTG: the switch fluorescence ratio is 1.09 ± 0.052.

Regarding CTCGTGAGTT, the switch fluorescence ratio was determined as 1.02 ± 0.021.

Consider CTCGTTCGGC, for which the switch fluorescence ratio came out at 0.98 ± 0.024.

Take CTCGTTTATC: the switch fluorescence ratio stood at 1.03 ± 0.032.

For CTCTAAGGCT, the switch fluorescence ratio was determined as 1.007 ± 0.009.

Turning to CTCTACGAGA, the switch fluorescence ratio was 0.983 ± 0.015.

As for CTCTACTCAA, the switch fluorescence ratio stood at 1.37 ± 0.031.

Take CTCTATAACT: the switch fluorescence ratio came out at 1.0133 ± 0.00043.

CTCTATTGGG: the switch fluorescence ratio was 0.993 ± 0.014.

Regarding CTCTCAAGGG, the switch fluorescence ratio is 1.088 ± 0.0077.

As for CTCTCGGATG, the switch fluorescence ratio came out at 1.01 ± 0.011.

For CTCTCTAGCA, the switch fluorescence ratio came out at 1.4 ± 0.015.

For CTCTGAGGAG, the switch fluorescence ratio was found to be 1.04 ± 0.035.

For CTCTGCAGTG, the switch fluorescence ratio is 3.7 ± 0.5.

For CTCTGTTTGG, the switch fluorescence ratio was determined as 0.957 ± 0.021.

For the sequence CTCTTATAGT, the switch fluorescence ratio was 0.969 ± 0.019.

Take CTCTTCTGGT: the switch fluorescence ratio was 0.971 ± 0.04.

For the sequence CTCTTGGAGA, the switch fluorescence ratio amounted to 1.01 ± 0.026.

Turning to CTCTTTGCGA, the switch fluorescence ratio amounted to 1.404 ± 0.0035.

CTCTTTGCTT: the switch fluorescence ratio stood at 1 ± 0.006.

For the sequence CTCTTTTTTT, the switch fluorescence ratio is 0.991 ± 0.014.

CTGAAATTTT: the switch fluorescence ratio was 1.0192 ± 0.00063.

For the sequence CTGAACAGTA, the switch fluorescence ratio worked out at 1.02 ± 0.033.

Take CTGAACTATG: the switch fluorescence ratio worked out at 1 ± 0.056.

For the sequence CTGAACTGTG, the switch fluorescence ratio worked out at 0.989 ± 0.11.

As for CTGAATACGT, the switch fluorescence ratio was found to be 1.009 ± 0.0078.

For CTGAATTGGG, the switch fluorescence ratio came to 0.999 ± 0.021.

For CTGACATGAG, the switch fluorescence ratio came to 1 ± 0.032.

For CTGACCGGGT, the switch fluorescence ratio was 1.014 ± 0.0015.

On to CTGACTCCAA, for which the switch fluorescence ratio worked out at 2.94 ± 1.6.

For CTGACTTTTT, the switch fluorescence ratio came out at 1.02 ± 0.016.

For CTGAGCGGCT, the switch fluorescence ratio was 1.05 ± 0.051.

Regarding CTGAGCTGTG, the switch fluorescence ratio is 0.968 ± 0.035.

On to CTGAGGAAGT, for which the switch fluorescence ratio turned out to be 0.9908 ± 0.0088.

With CTGAGGCGCC, the switch fluorescence ratio was found to be 1.01 ± 0.056.

In the case of CTGAGTATGG, the switch fluorescence ratio worked out at 1.01 ± 0.0034.

Turning to CTGAGTGCGG, the switch fluorescence ratio was determined as 1.02 ± 0.023.

As for CTGAGTTACT, the switch fluorescence ratio stood at 1.027 ± 0.0025.

Turning to CTGATATTTG, the switch fluorescence ratio is 0.998 ± 0.022.

Regarding CTGATCTGTT, the switch fluorescence ratio came out at 0.998 ± 0.024.

Regarding CTGATGGGGA, the switch fluorescence ratio is 0.961 ± 0.033.

For the sequence CTGATGTAGC, the switch fluorescence ratio is 1.21 ± 0.049.

As for CTGATTCGGT, the switch fluorescence ratio worked out at 0.9889 ± 0.0027.

CTGATTGAGT: the switch fluorescence ratio was 0.9763 ± 0.0063.

Regarding CTGATTGGGC, the switch fluorescence ratio was determined as 1 ± 0.013.

Regarding CTGATTTTAT, the switch fluorescence ratio is 0.9856 ± 0.0013.

For CTGATTTTTT, the switch fluorescence ratio was 1.02 ± 0.045.

As for CTGCAACTAA, the switch fluorescence ratio came out at 2.27 ± 0.054.

CTGCACGGAG: the switch fluorescence ratio came to 1.01 ± 0.022.

Turning to CTGCCTTGTT, the switch fluorescence ratio came out at 1 ± 0.015.

Take CTGCGGGCCG: the switch fluorescence ratio was determined as 1.004 ± 0.0073.

Take CTGCTAAGTA: the switch fluorescence ratio stood at 1.01 ± 0.013.

Consider CTGCTAGGGG, for which the switch fluorescence ratio is 1.04 ± 0.034.

As to CTGCTGGGGC, the switch fluorescence ratio stood at 1.05 ± 0.026.

As to CTGCTTGGTT, the switch fluorescence ratio amounted to 1.001 ± 0.0047.

Regarding CTGGAAGCTA, the switch fluorescence ratio worked out at 1.6 ± 0.1.

On to CTGGAAGGGG, for which the switch fluorescence ratio came out at 1.04 ± 0.024.

CTGGAAGTTT: the switch fluorescence ratio stood at 0.952 ± 0.044.

As to CTGGATCCTG, the switch fluorescence ratio is 1.02 ± 0.053.

The values are drawn from the supplement of paper PMC10126150.
